Values of other authors in publication PMC5963937.
pKd: −log10 of the molar value.

Biological target: LPL (Homo sapiens) (UniProt P06858)
UniProt P06858, sequence (P06858 28-475): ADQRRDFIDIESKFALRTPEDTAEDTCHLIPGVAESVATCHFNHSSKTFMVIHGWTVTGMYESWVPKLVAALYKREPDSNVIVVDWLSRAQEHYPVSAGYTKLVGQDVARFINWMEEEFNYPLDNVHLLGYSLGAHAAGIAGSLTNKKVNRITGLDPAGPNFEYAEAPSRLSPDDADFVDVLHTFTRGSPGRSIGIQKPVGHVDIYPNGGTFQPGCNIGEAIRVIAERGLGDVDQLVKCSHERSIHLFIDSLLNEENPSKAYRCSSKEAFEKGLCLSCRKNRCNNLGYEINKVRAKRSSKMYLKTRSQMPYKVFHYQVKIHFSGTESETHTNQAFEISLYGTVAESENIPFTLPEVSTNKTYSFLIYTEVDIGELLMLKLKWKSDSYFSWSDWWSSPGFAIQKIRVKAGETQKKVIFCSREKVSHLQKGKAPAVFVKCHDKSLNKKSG

pKd: 7.60
Substance: GPIHBP1 (from UniProt Q8IV16)
